Reference: doi:10.1101/2022.06.13.495990 (bioRxiv, 2022)

Molecular target: mCherry-RAB28 (UniProt Q99KL7 1-221)
Assay: co-IP

fraction of CFAP418 pulled down: ~0.1%
B1: FLAG-CFAP418 (natural protein)
chain: MAKDLDELLDEVETKFCRLDPLRLDLGERPKGDGGGGSHSGDRNGAQEKETLRSTETFKKEDDLDSLINEIFEEPDFDRKSFQKFKSKSSSNTCVRAPMQGVSKSCSPVYLSGSAIPCGIGTNTSQRACDRLRCVACDFRIVSYNDYMWDKSCDYLFFRNNMPEFHKLKTKLIEKKGARAYACQCSWRTVEELTDLQTDHQLRWVCGKH
